{"source": "paper PMC11157483", "target": "Aplysia californica acetylcholine binding protein (Aplysia californica)", "experiment": "cross-linking"}
{"substance": "Aplysia californica acetylcholine binding protein (natural protein)", "values": [{"measurement": "stoichiometry N", "result": 5}]}
